According to PMC6978347:

B1: AtNBR1^1–94 (AtNBR1–PB1) [Arabidopsis thaliana] / MBP-tagged wild-type AtNBR1–PB1^1–94 [Arabidopsis thaliana] (parent)
chain 1: MESTANALVVKVSYGGVLRRFRVPVKANGQLDLEMAGLKEKIAALFNLSADAELSLTYSDEDGDVVALVDDNDLFDVTNQRLKFLKINVNAGVS
chain 2: B1 chain 1

Variants of: B1
Assay: pull-down (MBP pulldown, band quantification)
Conditions: with MBP-tagged wild-type AtNBR1–PB1^1–94 [Arabidopsis thaliana];; read off a plot

Variant	ratio to parent
chain 1 D64A	0.27
chain 1 D60A D62A	0.06

Other lines, results leading:

ratio to parent	Variant
0.22	chain 1 E61A
0.01	chain 1 R19A R20A
0.04	chain 1 K11A D60A
0.32	chain 1 K11A
